Laboratory results taken from PMC4762649, “Tel1 and Rif2 Regulate MRX Functions in End-Tethering and Repair of DNA Double-Strand Breaks” (PLoS Biology, 2016).
Positions count from the first letter of the chain named. Blank lines part the entries; values can stand above or below the binder they belong to.

Assays:
Details in all cases: both partners purified
[1] = target: T1, Rad50-V1269M (S. cerevisiae, UniProt P12753 1-1312, V1269M); assay: SEC; Rad50 (or Rad50-V1269M), Mre11 and Xrs2 incubated together 5 h on ice; assembled complex separated from unassembled proteins on a Sephacryl S-400 gel filtration column; 0-4°C
T1 construct: Allele isolated after ethyl methanesulfonate mutagenesis; also called Rad50-V1269M mutant; purified Rad50-V1269M; source: overexpressed in yeast, purified (procedure devised for the wild-type protein)
T1 sequence (looked up): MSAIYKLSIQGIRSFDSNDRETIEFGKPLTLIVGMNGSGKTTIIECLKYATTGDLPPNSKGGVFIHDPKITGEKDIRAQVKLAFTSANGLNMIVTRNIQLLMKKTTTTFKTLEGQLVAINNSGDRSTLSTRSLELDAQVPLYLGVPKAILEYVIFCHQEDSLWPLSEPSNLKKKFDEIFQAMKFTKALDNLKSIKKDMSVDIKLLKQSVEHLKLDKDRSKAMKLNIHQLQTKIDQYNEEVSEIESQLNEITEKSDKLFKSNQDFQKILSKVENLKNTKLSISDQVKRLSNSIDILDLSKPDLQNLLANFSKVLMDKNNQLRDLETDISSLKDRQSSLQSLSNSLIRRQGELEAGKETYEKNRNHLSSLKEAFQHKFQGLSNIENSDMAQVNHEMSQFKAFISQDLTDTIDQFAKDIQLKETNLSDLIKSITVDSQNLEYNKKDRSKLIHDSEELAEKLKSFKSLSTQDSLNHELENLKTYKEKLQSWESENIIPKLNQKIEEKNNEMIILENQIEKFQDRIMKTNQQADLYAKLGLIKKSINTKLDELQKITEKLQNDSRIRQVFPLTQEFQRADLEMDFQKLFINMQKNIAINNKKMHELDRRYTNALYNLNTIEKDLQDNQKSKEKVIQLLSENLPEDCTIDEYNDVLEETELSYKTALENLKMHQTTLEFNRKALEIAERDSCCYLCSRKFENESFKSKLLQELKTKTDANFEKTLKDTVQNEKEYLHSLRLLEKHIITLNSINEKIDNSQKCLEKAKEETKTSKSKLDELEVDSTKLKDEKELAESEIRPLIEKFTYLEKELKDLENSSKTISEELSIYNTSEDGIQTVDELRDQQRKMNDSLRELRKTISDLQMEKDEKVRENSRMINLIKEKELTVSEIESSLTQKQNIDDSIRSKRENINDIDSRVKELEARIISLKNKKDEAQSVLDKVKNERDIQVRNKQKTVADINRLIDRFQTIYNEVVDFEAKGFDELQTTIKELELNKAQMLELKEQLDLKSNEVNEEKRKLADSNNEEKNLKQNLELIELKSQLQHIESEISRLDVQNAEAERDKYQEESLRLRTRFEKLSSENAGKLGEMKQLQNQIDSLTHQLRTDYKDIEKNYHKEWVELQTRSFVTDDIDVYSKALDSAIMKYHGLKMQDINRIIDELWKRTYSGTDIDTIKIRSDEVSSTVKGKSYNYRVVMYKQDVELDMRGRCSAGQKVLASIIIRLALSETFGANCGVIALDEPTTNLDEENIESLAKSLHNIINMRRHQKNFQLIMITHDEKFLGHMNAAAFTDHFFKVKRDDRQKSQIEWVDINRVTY

[2] = target: T2, Rad50 (S. cerevisiae, UniProt P12753 1-1312); assay: as above
T2 construct: Rad50, S. cerevisiae, subunit of the MRX complex; also called wild-type Rad50; purified Rad50; source: overexpressed in yeast, purified
T2 sequence (looked up): T1 sequence (looked up) with M1269V

[3] = target: T3, MR^V1269MX complex (Mre11-Rad50-V1269M-Xrs2) (S. cerevisiae, UniProt P32829 1-692; P12753 1-1312; P33301 1-854, V1269M); assay: pull-down; Flag-tagged Tel1 (50 ng) incubated with MR^V1269MX (100 ng) in the absence or presence of Rif2 (100 ng); captured on anti-Flag resin; immunoblotting
T3 construct: Mre11, S. cerevisiae; as m3; Rad50, S. cerevisiae, with V1269M; as m2; Xrs2, S. cerevisiae; as m4; also called mutant MRX complex; source: subunits overexpressed in yeast and purified, assembled and separated by gel filtration; copies: + +

binding result [1]: binds
B1: Mre11 (natural protein, S. cerevisiae, UniProt P32829 1-692, looked up)
chain: MDYPDPDTIRILITTDNHVGYNENDPITGDDSWKTFHEVMMLAKNNNVDMVVQSGDLFHVNKPSKKSLYQVLKTLRLCCMGDKPCELELLSDPSQVFHYDEFTNVNYEDPNFNISIPVFGISGNHDDASGDSLLCPMDILHATGLINHFGKVIESDKIKVVPLLFQKGSTKLALYGLAAVRDERLFRTFKDGGVTFEVPTMREGEWFNLMCVHQNHTGHTNTAFLPEQFLPDFLDMVIWGHEHECIPNLVHNPIKNFDVLQPGSSVATSLCEAEAQPKYVFILDIKYGEAPKMTPIPLETIRTFKMKSISLQDVPHLRPHDKDATSKYLIEQVEEMIRDANEETKQKLADDGEGDMVAELPKPLIRLRVDYSAPSNTQSPIDYQVENPRRFSNRFVGRVANGNNVVQFYKKRSPVTRSKKSGINGTSISDRDVEKLFSESGGELEVQTLVNDLLNKMQLSLLPEVGLNEAVKKFVDKDEKTALKEFISHEISNEVGILSTNEEFLRTDDAEEMKALIKQVKRANSVRPTPPKENDETNFAFNGNGLDSFRSSNREVRTGSPDITQSHVDNESRITHISQAESSKPTSKPKRVRTATKKKIPAFSDSTVISDAENELGDNNDAQDDVDIDENDIIMVSTDEEDASYGLLNGRKTKTKTRPAASTKTASRRGKGRASRTPKTDILGSLLAKKRK
notes: Mre11, S. cerevisiae, subunit of the MRX complex; also called purified Mre11; source: overexpressed in yeast, purified

binding result [2]: binds
binding result [1]: binds
B2: Xrs2 (natural protein, S. cerevisiae, UniProt P33301 1-854, looked up)
chain: MWVVRYQNTLEDGSISFISCCLQAFKTYSIGRSSKNPLIIKNDKSISRQHITFKWEINNSSDLKHSSLCLVNKGKLTSLNKKFMKVGETFTINASDVLKSTIIELGTTPIRIEFEWINEVWNIPPHLTQFRTMLSEYGISTEISINDIPANLMISDYPKSEDNSIRELYALVSTIPMKKSRFLMELCNTLLPTSKTNLKFDEMWNDMISNPEYNVFDFDPNILLSKFMRLNNIRVLTTIKSEPRLSSLLRTFNINLFAFDNIDSLYKYVDSLEASTEYLILTTTDKKENGKILCTIKTMLTSIIDGTLSAVINMKGASSRTLDNGKFDQISEGMSTILKTSRAPEVEASPVVSKKRKLNRRRVLPLDSLDFFAGGLSTKTLSENRSLTDAKRLNCGAESKTVISSPNIAEADEKHAPFLQNALKPTEDIGKKSGHSSPGAIIVSSPNLGTVNTSEDSLDKSLQSHKLPQPSLPEVAGIGSQTISSNSADYETAAVNSMDDAEVTKNFRVNHHQNIEQPSKNIRKLSNYSREISSPLQENCKSPVKELSIKEKSGTPHAFVEAIQETKNREVKRVKSTIVELKDEELSEEAINQLKNLAIVEPSNNLLRKSFDSEGNKTSRTTEKWENSLMEPEWHKRKNFKTFVKVRPKSKAHKEEGKNNTQSSDFIRNAAFLITRNYVPLKKYSKKDTTTKWGTEENEDMFALTEMERFGSNTFMSDNINSNTIQKRSQALNRFTNEDSSNEGEEDSFSFSRCSGTAASVQPLKNKIFITDEDDLGDIDDKSDRLNHRENNRNLFVVKEMNLRPNLSEECSKQSRHSRSATSRSRGSFGASNNGDGDDDDDDGPKFTFKRRKG
notes: Xrs2, S. cerevisiae, subunit of the MRX complex; also called purified Xrs2; source: overexpressed in yeast, purified

binding result [3]: binds
B3: (His)6-tagged Rif2 (natural protein, S. cerevisiae, UniProt Q06208 1-395, looked up)
chain: MEHVDSDFAPIRRSKKVVDSDKIVKAISDDLEQKNFTVLRKLNLVPIKKSVSSPKVCKPSPVKERVDHVFYQKFKSMALQELGTNYLSISYVPSLSKFLSKNLRSMKNCIVFFDKVEHIHQYAGIDRAVSETLSLVDINVVIIEMNDYLMKEGIQSSKSKECIESMGQASYSGQLDFEASEKPSNHTSDLMMMVMRKINNDESIDHIVYFKFEQLDKLSTSTIIEPSKLTEFINVLSVLEKSNNIAFKVLIYSNNVSISSLLSTSLKKKLNTKYTVFEMPILTCAQEQEYLKKMIKFTFDSGSKLLQSYNSLVTCQLNNKESNLAIFFEFLKVFPHPFTYLFNAYTEIIVQSRTFDELLDKIRNRLTIKNYPHSAYNFKKNQRLPLKLTRKVHDR
notes: Rif2, S. cerevisiae; expressed from pET-Rif2 (gift from K. Sugimoto); No removal of the tag is described; the final preparation is called (His)6-Rif2; also called (His)6-Rif2; purified Rif2; source: E. coli BL21 Rosetta, purified (Ni-NTA, SP Sepharose, Mono S, Superdex 200)
